These results are taken from US8217140B2, “Peptides capable of binding to serum proteins and compounds, constructs and polypeptides comprising the same” (Ablynx N.V., priority 2008, dated 2012).

The conditions of data set [1]: cynomolgus monkey, in vivo. How it is done:
The pharmacokinetic profile of the constructs was analyzed in male cynomolgus monkeys of approximately 3 to 4 years old and was compared to the reference (SEQ ID NO:165). The constructs and the control were each injected in three monkeys at a dose of 2 mg/kg via an intravenous bolus injection. Blood samples were taken at predose, 5 min, 20 min, 1 h, 2 h, 4 h, 8 h (test day 1) after administration and at test days 2, 3, 5, 7, 9, 12, 15, 18, 21, 24, 27, 30, 33. In order to obtain at least 1 mL plasma per animal per sampling time, a sufficient volume of whole blood was withdrawn per sampling time. Plasma was collected after whole blood centrifugation for 30 minutes at 2200 g at room temperature (RT). The plasma samples were stored at −80° C. until analysis.
For bioanalytical determination of constructs and control article in monkey plasma, plasma samples were tested for levels of constructs and the control using ELISA based PK assays. The detection of control and constructs in the ELISA assays is based on the binding of these Nanobodies with vWF and the assay set-ups are as such that total vWF-binding Nanobody is detected.
For the reference (SEQ ID NO:165) and the construct of SEQ ID NO:167, 96-well microtiter plates (Maxisorp, Nunc, Wiesbaden, Germany) were coated overnight at 4° C. with neutravidin (Pierce) in 10:10 buffer at 3 μg/ml. Wells were aspirated and blocked for 1 hour at RT with PBS/1% casein. After this blocking step, wells were washed with PBS/0.05% Tween20. A biotinylated bivalent Nanobody against the constructs was added to the neutravidin coated plate at 2 μg/ml in PBS/0.1% casein and incubated for 1 hour at RT. After the incubation step of this capture tool, wells were washed 3 times with PBS/0.05% Tween20.
Preparations of the standards, QC samples and dilutions of the test samples were performed in a non-coated (polypropylene) plate. For the standard curve and QC-samples, solutions at the required concentrations were prepared in PBS/0.1% casein and spiked into 100% monkey plasma. To prepare standards and QC samples, a 1/100 dilution of the pure monkey plasma dilutions was made in IgM-Reducing Agent (Immunochemistry Technologies, Bloomington, USA) supplemented with 2.5% pooled human plasma (referred to as sample diluent). For the test samples, dilution factors for the test samples were estimated, and ranged between 1/100 to 1/9000 for the reference of SEQ ID NO:165 tests and between 1/100 and 12000 for the construct of SEQ ID NO: 167. Samples were diluted 1/100 in sample diluent in a first step, and if needed, further dilution was done in sample diluent supplemented with 1% cynomolgus plasma.
Standards, QC samples and diluted test samples were transferred onto the coated plate and incubated for 1 hour at RT. Afterwards the plates were washed followed by a complexation step with purified vWF (ZLB Behring). vWF diluted to 2.5 μg/ml for the assay for the reference of SEQ ID NO:165 and to 3 μg/ml for the assay for the construct of SEQ ID NO: 167 in PBS/0.1% casein was incubated on the plates for 30 minutes at RT. Plates were washed and Nanobody/vWF complexes bound to the capture tool detected with Rabbit anti-human vWF Ab (Dako, Denmark), diluted 1/2000 in PBS/0.1% casein and incubated for 30 minutes at RT. After washing, a 1/15000 dilution in PBS/0.1% casein of Horse-Radish-Peroxidase labelled goat anti-rabbit Ab (Dako, Denmark) was added to the plate and incubated for 30 minutes at RT. The enzyme coupled to the Ab catalyzes a chemical reaction with the substrate sTMB (3,3′,5,5′-tetramethylbenzidine, SDT reagents, Brussels, Belgium), resulting in a colorimetric change. After stopping this reaction after 10 minutes using HC1 (1N), the intensity of the colour was measured using a spectrophotometer at 450 nm. […]

In data set [2] the test system is platelet adhesion to fibrillar collagen. In words: Perfusion experiments: platelet adhesion to collagen at arterial shear rate. It counts as cell-based, human. How it is done: The perfusion experiments were performed with a single-pass perfusion chamber under non-pulsatile flow conditions using a modified small perfusion chamber with a slit height of 0.1 mm and a slit width of 2 mm. […] Citrated human blood was preincubated at 37° C. for 5 min with or without addition of test compound, and then perfused through the chamber for 5 min at a wall shear rate of 1600 s^−1 using an infusion/withdrawal pump (pump 22, model 2400-004, Harvard Apparatus, Holliston, Mass.). After the perfusion run, the coverslips were rinsed in Hepes buffered saline (10 mM Hepes, 150 mM NaCl, pH 7.4) and platelets were fixed with 5% glutaraldehyde and stained with May-Grünwald and Giemsa. Platelet deposition of the coverslip was evaluated as platelet surface coverage of 10 randomly chosen pictures using light microscopy (Olympus BX61 microscope using Analysis Five digital imaging solutions analysis software).

A further data set has as its system VWF. In words: Pharmacodynamic profile: ristocetin cofactor activity assay (% RICO) after i.v. administration. It counts as in vivo, Cynomolgus monkey. How it is done: For the constructs used in Example 14, pharmacodynamic characteristics upon compound administration were measured by means of a ristocetin cofactor activity assay (Biopool). The ristocetin cofactor activity is a functional assay for VWF, measuring the capacity of VWF to interact with the platelet receptor glycoprotein Ib using ristocetin as a modulator.
For pharmacodynamic data analysis, descriptive statistics (mean and SD) were calculated per dose group and per sampling time point using Microsoft Excel 2007. Response parameters and associated statistics for the overall time course were calculated by noncompartmental analysis of the response-time data using WinNonlin Pro 5.1 (Pharsight Corporation, USA; 2006). The non-compartmental analysis was based on a model for pharmacodynamic data (Model 220). The threshold value was set at 20% based on extensive historical PK/PD data on the vWF-0001 compound. Preclinical studies have shown that a complete inhibition of the pharmacodynamic marker are correlated with full antithrombotic efficacy. The following main pharmacodynamic parameters were determined: time below the threshold (Time below T), area under the threshold (AUC below T), time at which the % RICO first drops below the threshold (Tonset), and time at which the % RICO first returns back above the threshold (Toffset).

The target in data set [3] is Cynomolgus monkey serum albumin (Macaca fascicularis, UniProt A2V9Z4). Kind of data set: Surface plasmon resonance (BIAcore 3000) of MycHis tagged 2D3-Expedite fusions, Example 10. It counts as binding. The following applies: Cynomolgus monkey serum albumin. How it is done:
(§1) The binding of the resulting 2D3-9GS-56E4-MycHis, 2D3-9GS-59C2-MycHis, 2D3-9GS-59F2-MycHis and 2D3-9GS-59H12-MycHis fusion proteins to human and cynomolgus serum albumin (HSA and CSA respectively) was determined using surface plasmon resonance analysis. For this purpose, binding to HSA and CSA was assessed in BIAcore™ 3000, by injecting concentration series of the fusion proteins ranging from 2 μM to 200 nM on a CM5 chip coated with ˜3000 RU HSA or CSA. Coating of the chip (CM5) was performed by amine coupling using NHS/EDC for activation and ethanolamine for deactivation (Biacore amine coupling kit). HBS-EP was used as flow buffer at a rate of 45 μl min-1. 90 μl of sample was injected for 120 s.
(In general: Surface plasmon resonance follows binding to a sensor surface in real time, without labels.)

A further data set concerns the target human serum albumin (Homo sapiens, UniProt P02768). Described as above. It counts as binding. As to conditions: Human serum albumin. How it is done:
as §1

The mark [4] stands for this setting: threshold 20% RICO, i.v. bolus 2 mg/kg, male Cynomolgus monkey, mean n = 3.

Cynomolgus monkey serum albumin, sequence (A2V9Z4 25-608): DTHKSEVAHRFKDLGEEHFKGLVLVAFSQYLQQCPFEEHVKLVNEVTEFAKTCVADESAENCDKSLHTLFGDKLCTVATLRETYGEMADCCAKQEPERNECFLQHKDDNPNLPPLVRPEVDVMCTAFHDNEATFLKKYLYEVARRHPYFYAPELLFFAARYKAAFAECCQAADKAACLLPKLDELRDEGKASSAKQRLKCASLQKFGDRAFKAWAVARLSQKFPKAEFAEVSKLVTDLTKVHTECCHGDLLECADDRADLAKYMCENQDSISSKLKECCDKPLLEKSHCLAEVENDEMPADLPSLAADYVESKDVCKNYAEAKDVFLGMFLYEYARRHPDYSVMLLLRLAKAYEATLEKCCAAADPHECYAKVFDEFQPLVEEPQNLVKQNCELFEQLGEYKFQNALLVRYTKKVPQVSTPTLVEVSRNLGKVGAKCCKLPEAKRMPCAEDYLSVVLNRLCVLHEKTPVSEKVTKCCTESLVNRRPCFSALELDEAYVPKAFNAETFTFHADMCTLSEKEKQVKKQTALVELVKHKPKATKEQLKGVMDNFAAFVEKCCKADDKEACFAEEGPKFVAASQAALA

B1: 12A2_sv1-AAA-12A2_sv1-9GS-59C2-9GS-59C2 (protein)
chain: DVQLVESGGGLVQPGGSLRLSCAASGRTFSYNPMGWFRQAPGKGRELVAAISRTGGSTYYPESVEGRFTISRDNAKRTVYLQMNSLRAEDTAVYYCAAAGVRAEQGRVRTLPSEYTFWGQGTQVTVSSAAAEVQLVESGGGLVQPGGSLRLSCAASGRTFSYNPMGWFRQAPGKGRELVAAISRTGGSTYYPESVEGRFTISRDNAKRTVYLQMNSLRAEDTAVYYCAAAGVRAEQGRVRTLPSEYTFWGQGTQVTVSSGGGGSGGGSRDWDFDVFGGGTPVGGGGGGSGGGSRDWDFDVFGGGTPVGG
Take B1: in data set [1], the “Vdss lower relative to vWF0001” value worked out at 19 fold, the “dominant half-life (t½ dominant) increase relative to vWF0001” value is 158 fold and the “mean CL decrease compared to the control” value came to 67 fold. In data set [1] (iv, 2 mg/kg), the AUCinf is 4140 µg·h/mL and the C0 was 69.4 µg/mL. Moreover, the “Effective concentration compared to VWF0001” value in data set [2] (FIG. 12) is “similar”. The “inhibition of platelet adhesion to fibrillar collagen at arterial shear rate” value in data set [2] (citrated human blood, wall shear rate 1600 s^−1, FIG. 12) was “dose-dependently and completely inhibit”. In addition, the “Tonset values” with VWF (estimated, i.v. application) was ~5 min. In the data set on VWF (i.v. bolus), the “mean AUC under the threshold increase relative to vWF0001” value amounted to 259 fold and the “time below the threshold increase relative to vWF0001” value stood at 167 fold. Besides, in the data set on VWF (setting [4]), the “AUC below T” value is recorded as 1709 % RICO * h and the “Time below T” value was 202 h. In addition, the Tonset in the data set on VWF (time % RICO first drops below threshold, i.v. bolus 2 mg/kg) is listed as 0.079 h. Moreover, the Toffset with VWF (time % RICO first returns above threshold, i.v. bolus 2 mg/kg) is listed as 202 h.

B2: 2D3-9GS-56E4-MycHis: SEQ ID NO: 158 (protein)
chain: EVQLVESGGSLVQPGGSLRLSCAASGFTFDDYAMSWVRQVPGKGLEWVSSINWSGTHTDYADSVKGRFTISRNNANNTLYLQMNSLKSEDTAVYYCAKNWRDAGTTWFEKSGSAGQGTQVTVSSGGGGSGGGSAAARYWDYDVFGGGTPVGGAAAEQKLISEEDLNGAAHHHHHH
modifications: Myc-His tag
B2: the ka in data set [3] (chip ~3000 RU) is reported as 4.01E+03 1/ms; with human serum albumin (chip ~3000 RU), 5.02E+03 1/ms. Further, the “koff (dissociation rate constant)” value in data set [3] (dissociation rate) worked out at 0.00845 s⁻¹. Also, the “dissociation rate constant (koff)” value with human serum albumin (dissociation rate) stood at 0.00497 s⁻¹.
